From a protein production outcome set (Wang et al. 2014)

Assay: label from the status in PepcDB records
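Note: failed if final PepcDB status was selected cloned or expressed and not failed if soluble or beyond.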

MSRCASRFRISSKLSATFRTTHKSHQARNPAGFFVIMGYHKDATKRMIMVYTKVYPMRFGYIALGTPPIQSLDIRKMPKLTDMQIRAWIKSGERFEGRADGNGLYLRYREADKTPTWRFRYKLAGKSRAMLIGSYSELSLSKARETAKELSARVALGYDVAGEKQKRKTEALAKMEAEKNAMRVSELAAEYFERQILPRWKHPDILRRRIDKDINPCIGSMKVEDVKPRHIDDMLKGIVDRGAPTIATDVLRWTRRIFDYGIKRHALEINPCSAFEVADAGGKEAARDRWLTRDELIQLFKAMRTAKGFSRQNEITFKLLLALCVRKMELCAARWEEFDLDGAVWHLPEERSKNGDPIDIPLPSPAVEWLRELHTFSCNSAWVLPARKMQNRMIPHIQESTLPVALAKVRAEMPDVPNFTIHDFRRTARTHLAALGVDPVVAERCLNHRIKGVEGIYNRHQYFDERKAALAQWADLLVALESGKDYNVTPLRRAN
protein production: failed

MCEGRRAAFQAVDNCSSGNALTSKCGEKEAGVAGDAATSPKGLTWDPAQCFYSPACNAENITSKNRSPALLSRPHAQPGESERLITVLSNRDRKASPGAAGDSGLGGASPSGRGRDGTRGWGENWLPPPAAPQATSACSGAGSGAVGAARPCSSRELAVVGGGGDASGGCVGCRAGDRTAAPSSRCPEPTWSNCSEATAPAHTGEEAAVAAVAAAPAMLCYVTRPDAVLMEVEVEAKANGEDCLNQVCRRLGIIEVDYFGLQFTGSKGESLWLNLRNRISQQMDGLAPYRLKLRVKFFVEPHLILQEQTRHIFFLHIKESLLAGHLQCSPEQAVELSALLAQTKFGDYNQNTAQYSYEDLCEKELSSSTLNSIVGKHKELEGISQASAEYQVLQIVSAMENYGIEWHAVRDSEGQKLLIGVGPEGISICKEDFSPINRIAYPVVQMATQSGKNVYLTVTKESGNSIVLLFKMISTRAASGLYRAITETHAFYRCDTVTSAVMMQYSRDLKGHLASLFLNENINLGKKYVFDIKRTSKEVYDHARRALYNAGVVDLVSRNDQSPPSSPLKSSDSSMSCSSCEGLSCQQTRVLQEKLRKLKEAMLCMVCCEEEINSTFCPCGHTVCCESCAAQLQSCPVCRSRVEHVQHVYLPTHTSLLNLTVI
protein production: failed

MNQEVRFSRLEPEQRKALLIEATLACLKRHGFQGASVRKICAEAGVSVGLINHHYDGKDALVAEAYLAVTGRVMRLLRGAIDTAPGGARPRLSAFFEASFSAELLDPQLLDAWLAFWGAVGSIEAIGRVHDHSYGEYRALLVGVLRQLAEEGGWADFDAELAAISLSALLDGLWLESGLNPATFTPRQGVQICEAWVDGLEAGAHRRFRRAMEAC
protein production: not failed

AQTPAQPQGKGIFQSVSEAIDAAHQAFLRYQQCPLKTRSAIISAMRQELTPLLATLAEESANETGMGNKEDKFLKNKAALDNTPGVEDLTTTALTGDGGMVLFEYSPFGVIGSVAPSTNPTETIINNSISMLAAGNSIYFSPHPGAKKVSLKLISLIEEIAFRCCGIRNLVVTVAEPTFEATQQMMAHPRIAVLAITGGPGIVAMGMKSGKKVIGAGNPPCIVDETADLVKAAEDIINGASFDYNLPCIAE
protein production: failed

SLLCGPLRLSESGETWSEVWAAIPMSDPQVLHLQGGSQDGRLPRTIPLPSCKLSVPDPEERLDSGHVWKLQWAKQSWYLSASSAELQQQWLETLSTAAH
protein production: not failed

ESRLDRILESGVLRVATTGDYKPFSYRTEEGGYAGFDVDMAQRLAESLGAKLVVVPTSWPNLMRDFADDRFDIAMSGISINLERQRQAYFSIPYLRDGKTPITLCSEEARFQTLEQIDQPGVTAIVNPGGTNEKFARANLKKARILVHPDNVTIFQQIVDGKADLMMTDAIEARLQSRLHPELCAVHPQQPFDFAEKAYLLPRDEAFKRYVDQWLHIAEQSGLLRQ
protein production: failed

MADGIYGSFENLKKHAGAMTLETYMRFNAKLSEAKDEMGAKEYEEFTKELKKLTNAKLAYGDSNGNIDYDGLSPAKREEMKKVSMGLQPYFDKLNGHKSSKEVLTQEEFDRYMEALMTHEIVRVKTKSTGAIKIEEVPEAYKERFIKAEQFMEYVDEKVR
protein production: not failed

MSASRRSGTTDELGPDGPDPERDGPDGADLLAALLDGMDAALCAFDADGVVTHWNREAERILGWTAAEAVGRRGFAGWAVRTADAEDVEARLMTAMQAPGRQVHEFALLTKDGGRVLVRTQSAAVHGPDGKPAGVYCAFSEVHTQIDLERSIALSEALFEDASWGVVLVDADLRPAVVNAHAARALGTGRTTVLGRPLGDLLSQGVEELESALTHVLAEGAPPAPAEMWVSVRTAEGEKRRCWRSGFLRLASPLAEEPVPLGVGWLFQDITEAKQTEQEAALLRFRTNQLHRAARAAAECEDPGEAATVHLDFSLAGFADHALIDRVAGGPVADGDRDGDGPPVRLVRAADTPSGAPGPSLLVGKAELPVWYAEGHPALQCVERAGSVRASAGVSDAERAREWAISRQWPGDAVHALCAVLRSRGRTLGVVTFLRGAGRSQFERADAVYAEDVAVRIAAALDLAGLAGLAGPAGER
protein production: failed

AAQGFVFNLDNPIFKDRRVREALSLLWDFDWINRRVMRNFYVREQSYFPKSDMAATELPTPAELKILEPLRGQVPDEVFTTVYQPPKTDGSGYIRDKQLQALKLLAEAGWHPKNNKLVNAAGEPMVFSFLDGQGGFDRLILPFKRTLAQIGITLDFLRIDSAQYINRLNARDYDMIVVSLPKNGNPIISPGRELYNLYGSQSATEVGSSNAMVLRNPAVDTLIDGLVSANTRNDMVLYARALDRVLQWGYYMIPNYYSK
protein production: failed

MRAADAPDAPLPEDRRNAPVWFAHDLEAPRCTALFPRLADRRPALVVVGGFLGSGKTTFLNNCIEYHRARERFVAVIQNEVGATGVDARLMGDGAEVLALDEGCVCCSLAGSLAGGIRAITADFTPEVILLETTGLANPLNLLAELDTLRDMVRLDAVVTVVDAANIVPTLRDSDIARDQIRGADIIVCNKCDTVDETGRAALRATLTGLNGRAALHETSFGRIHPSLFMALEGERPPRGLMPAPHGTHATHADEGFAAVRLFFSGTIDEAALAPLLQQCPGAPFRIKGIVRVTDDEAPRLVQCVGARCEVERLDGGFEGTPFLVFIGRNPDETALLEHWAALGATAEPPAPQAEADTQPAQATKSASGGQSSDATRGCHDHHLEHHHHHH
protein production: failed

MQAETNSAPLAAALYMIAAMSIIGVIDNYVIRLAESIGLWQFHFMRSLMMLPLVGLMSLMGLGGLFPRRKGWVLLRSLLLTVAMLFYFSALAFMPIAQALAGLFTSPIFVLLVTAFGLRQRIGPWRILAVLMGFAGILFVLQPDPGAFDATVLIPVAGGFFYALGAVVTRRHCAGESTAALLGAMVTALGLTGLGGLIWLALFPATPLPGPDGFVARGWVWPMAEAMPWVALQAVGSATAVFMLIRAYQLGEPSYVSVFEFSVMIFGPLFAWVVLGVGLGPWQMLGIGLIVLAGAIIALRSG
protein production: failed

MGISPPLTAVSAFGTDVSGNAFIGAGVATLAVLMVLSAFFSSSEIAMFSIPRHRIDALVEEGRSGADAVAALKSDPHRLLITILVGNNLVNIAMSSIATGLFATSMSQGKAVLAATFGVTALVLLFGESAPKSYAVENSESWALSIAKPLQWSERFLYPLVVLFDYLTRAVNQFTGGRAAIESSYVTRSEIQDMIKTGEREGVIEEDEREMLQRIFRFNNTIAKEVMTPRLDVVAVSKTDTIEAAIQTCTQAGHERVPVYDGELDNVIGVVSLEDLVRESLYGETEDAELDDLIEPTLHVPESKNVDDLLQEMQDERVQLVVVIDEFGTTEGLLTAEDITEEIVGEILDGGEDLPIDSVDEDTVRVRGEVNIEEVNEALNIDLPEGEEFETIAGFIFNRAGRLVEEGEAFRFEDIELTVEHVENTRIMKARVQRLDSAAEADANAEVLTADSTGNGA
protein production: failed

PTSSTTAALVMGDALAVALLEARGFTAEDFALSHPGGALGRKLLLRVNDIMHTGDEIPHVGLQATLRDALLEITRKNLGMTAICDDDMNIIGIFTDGDLRRVFDTGVDMRDASIADVMTRGGIRIRPGTLAVDALNLMQSRHITCVLVADGDHLLGVVHMHDLLRA
protein production: not failed

MNKERNIIIAKNIRKFLNDSNMSQKKLAELINIKPSTLSDYLNLRSNPSHGVIQRIADVFEVGKSDIDTTYKDDNDITSIYNKLTPPRQENVLNYANEQLEEQNSKGDNVVDINSYKQEKTPVNVNGCVSAGVGERLHDETLFTEMVKGPIPTHDLALKVNGDSMEPMFKDGEIIFVEKTHNIKNGQIGIFIIEEEAYVKKVFVEDDRLTLVSLNKDYDDLHFYRNESVRLIGKVIL
protein production: failed

MDKTIYEQMLLKNYKGAEGAEEAWDARANHFYKSQQRGRSELVEKVTAILQERGLLAGADLLDIGGGSGRYAVPFAAHAEHVTITDISANMLELARRNAQEAGVTNLTYAKLEWTGADLAAWQWRKRFDLVFASMCPAIRSPEGLYKMLEAAKGFCLINQYIEATDSLSAYLTQVLDPPRSYEPYNDRDMVQAVFNLLWLEGYEPEICYLRQREVTSFTVEGAVEQYGGRYHQAAQLKRMDLAELISRHAGQVTFSVDSKATLAMILWKV
protein production: failed

MSQPNFLLFITDQHRADHLGAYGNSQIRTPALDALARRGWLAERFYVASPICMPNRATLMTGRMPSAHGARHNGIPLSQRATTFVERLRQAGYGTALVGKSHLQNMTGNGPVWPRPQDPPAEGEAWAPEPGDYDQEWGPLWREDPAHDLATPFYGFSQVDLAVDHGDRVWGHYWRWLQREHPEVAAQAGPDHALPAPGFELVRAGQAWRTRVPESCSTTAYLGRRTMQALDGYAQRGQPFFIQCSFPDPHHPFTPPGKYWDMYRPEDVELPASFHASAAAGRQPPPHVQWMYAQRDSGRAVKHTPAMFACTEREAREAIALNYGSISHIDHTVGEVLAHLQRLGLADNTVVIFTSDHGDYLGDHQLLWKGPVHYQSVIRTPFIWADPAGAQGARSDALCSTTDIAPTILARAGLLPYNGIQGADLGALMRGEQAAPREAVLIEEEGQRVMFGFDKRVRMRTLQTGRYRMSVYHGVSWGELYDLREDPLELRNLWDEPGSAALRQDLLFQLAQNLIGHGETSPHPTALA
protein production: failed

MAVLSMLGIIDAKPKVGYFYLGQYHASIGTSHFEKMTVSEIMGIPLTVHQKDSVYDVIVHIFMEDAGCAFILDDDDFLCGVVSRKDLLKISIGGGDLSKMPIGMVMTRMPHVTTVLENESLFAAADKLVSRKVDSLPVVRHDKQYPEKFKVIGKLSKTILASLFLEIRDY
protein production: failed

MAPVKLYMVEVIDKKEIAANERRSRENDVTGPEITHYYQVTFRLTTDDRKDLVLNIDKSSYQNIEPEMKGRLFMQGSRFVQFETDVPIDEQKLEHHHHHH
protein production: not failed

MSNAITMGIFWHLIGAASAACFYAPFKKVKKWSWETMWSVGGIVSWIILPWAISALLLPNFWAYYSSFSLSTRLPVFLFGAMWGIGNINYGLTMRYLGMSMGIGIAIGITLIVGTLMTPIINGNFDVLISTEGGRMTLLGVLVALIGVGIVTRAGQLKERKMGIKAEEFNLKKGLVLAVMCGIFSAGMSFAMNAAKPMHEAAAALGVDPLYVALPSYVVIMGGGAIINLGFCFIRLAKVKDLSLKADFSLAKSLIIHNVLLSTLGGLMWYLQFFFYAWGHARIPAQYDYISWMLHMSFYVLCGGIVGLVLKEWNNAGRRPVTVLSLGCVVIIVAANIVGIGMAN
protein production: failed

MDFHTDTIILLAGLLFIVGVITAKFSTRLGVPALVLFILVGMLVGSDGLGLIHFDFSQAHFAQLIGIFALVIILFEGGLQTKWKTVQSVAVPSLSLATFGVLITSTLVAVAAKYVLGVSWLEAYLFGAIVGSTDAAAVFAVLKEQNIKDRLATTLEAESGTNDPMAVFLTLSLIELITIGSMNPLHLFGSFLWQMGAGLILGFGLGKLGSYSINKINLDSSGLYPVFALAFALLTYSVTAMIGASGLLAVYVAALVIGNQDLTYRHSIFRFNEGFAWMMQMLMFIILGLLVFPNQLFEASIFIKGILLSLILMLVARPVAVFLTTIKMRFDWKEKLFLSWAGLRGAVPIVLATFPMTAGLENSPLFFNVVFFVVLTSALIQGSTIAHFANKLQLTGPQKTTPLHSLELVSIGKANAEIVELEMKQDTPVIGKTLEEINLPKDVLVNAIIRDEQLITPYGKTTIQADDILYVLVSKKKKRQLKELFQAKES
protein production: failed
